Assay results published in the DeepSol protein solubility set.

Test: soluble on expression in E. coli; label from the status in PepcDB or PDB records

Sequence	soluble on expression in E. coli
MQKIVIVANGAPYGSESLFNSLRLAIALREQESNLDLRLFLMSDAVTAGLRGQKPGEGYNIQQMLEILTAQNVPVKLCKTCTDGRGISTLPLIDGVEIGTLVELAQWTLSADKVLTF	soluble
MVINSINWLFSEVVAMAVGEKITISVIKADVGGWPGHSRVHPALIEKAREVLSEAQKNGTIIDFYVTYAGDDLQLIMTHKKGVDSPEVHGLAWEAFKKATEVAKELGLYGAGQDLLKDAFSGNVRGLGPSVAEMEITLRKSEPIVTFHLDKTEPGAFNLPIFRMFADPFNTAGLVIDPKMHMGFRFEIWDILEHKKVIMSSPEEMYDILALIGAKSRYVIKRVYPKEGHPVPKDEPVAVVSTEKLYEVAGEYVGKDDPVAIVRAQSGLPALGEVLEPFAFPHLVSGWMRGSHNGPLMPVPLKYATPTRFDGPPRAVALGWQISPEGKLIGPVDLFDDPAFDWARQKALEITDYIRRHGPFEPHRLPSEEMEYTTLPGVLEKLKDRFEPIE	soluble
MGSDKIHHHHHHMKLGLLTAPFAETPLADVAAWASSAGFEALEIACWPKTSGATRRYAGTSHIDAASTSPAQAKEITASLAEKHLTISGLGYYPNPLHPDAAHREAVIGHLKKVIELAANMGVPVVNTFCGGDASKTVDVNWQDALKVWPEIVAFARGHGIKLAFENCPMIFSYDEWPGGHNIAYSPQVWRRILETWGGDIGMNFDPSHLVWQMIDQARFIREFGPYMLHVHAKDLMIDHDGLYERGILSAGIGWQVPRMPGLGDVDWSGFFSGLYRAGYDGSVIIEHEDRRFEGSDEQVKRGFLLARDVLRPYVK	not soluble
MKVEIGKIVNTHGIKGEIKVKSNSDFTETRFQPGELVIIERKNKEPLEFTIASYRMHKGLHMLTFEGINNINDIEYLKGETIMQERDHEEIELGEHEFYYSDIIGCTVFDDDDTPIGRVTEIFETGANDVWVVKGDKEYLIPYIADVVKDIDVEGRRIQITPMEGLLDLEHHHHHH	soluble
MAHHHHHHMDMLGAVVVENSNLTTTLPAPHTLHERPAEGFSPQRRVLLVPLTEAYEHTTGWMVPTEMEGAQLAMSLYVNDTPVSLPPNWQLSPAKEAAAVKTAMAVDITPLVLSIERDLFSLQVIFSGDVAEMEMWRGVIACVLVEEVELAQLGERIVSTYHKRRAPVIRRSPLSSCGERGVVAITEVSVKIQCPITTLTMEIPVRGMYCEHLQCMELAAVLIQCARQNVWNCPLCSAAMKPEDIIVNHRLKDWIASHSREVVAQVEYIVETELGRPLKIVYKAARPEQHSTIEVIDDEEK	not soluble
MSLIRFRFVDDHRTDYSVKRMCTVLGLNRSSYYKWKASSAQRHRRLVDDAILGAKVQAIFDDKKQLYGAKRIAAELTFNDAYSSTGPVNHKRIARIMRKLQLRGYTKKRKVTTTQRERHRFIFADLVKRNFTAPAANRILVGDITYLPIADGSNMYLASVIDCYSRMLVGFAIADHMRTDLVEEALEHARRTRGSLSGAIFHSDHGSVYTSSQFQAVCRRLNVTQSMGAVGSSADNSLAESFNAALKREVLKDQKVFSNQLVCRRDVFAWCARYNTTRRHSWCKYLTPIEYESHASEGHHHHHH	not soluble
MGSDKIHHHHHHVDIQQIRNATLVVNYANQVFLIDPFLGEKGSLPPFGETPNAVPNPLVDLPVDVSTLLDPDAIFVTHLHADHFDETAKEILPKQIPLYAQNQADAATIREAGFTNVSSFENGLALGDIRVYHTSGRHGVGEIGQRMGTVSGLVLTHPDEPTLYIAGDTIWCEEVETAIEQHAPDIIIVNSGAAQFLTGEPITMSQRDLLAVHQAAAEATIIVSHLESVNHCLLRRDMIADFLAAHHLSAHFLIPDDGETISF	not soluble
MGSDKIHHHHHHMRTVQAISGLVTSRFFGTSTRIMASGKTLNTSNINPNVIKMEYAVRGPIVIRAVELEKELATGAQKPFPNVIKANIGDAHAMGQKPITFIRQLLACIVNPEIMKTDKSIPSDVIEHANAFLGSCGGKSAGAYSQSTGVEIVRKHVAEYIKRRDGGIPCNSEDVCLSGGASESIRNVLKLFINHNNAKKVGVMIPIPQYPLYSATIEEFGLGQVGYYLSESSNWSMDEAELERSFNDHCKEYDIRVLCIINPGNPTGQALSRENIETIIKFAQKKNLFLMADEVYQDNVYAQGSQFHSFKKVLVEMGEPYNKMELASFHSVSKGYMGECGMRGGYVEFLNLDPEVYVLFKKMISAKLCSTVLGQAVIDAVVNPPKEGDASYALWKQEKDAVLASLKERATLVEKAYSSIDGISCNPVQGAMYAFPQITIPQRAVEKAQSLNQQPDFFYAMQLLETTGICIVPGSGFGQKDGTYHFRTTILPQPELFKDMLSRFTDFHQKFLAEYKRLYCHFHLTNNRTSDSFWHTLIDGFPKYKVFVQNRRSTQCAFHSIQLSRF	not soluble
AKDNYGKLPLIQSRDSDRTGQKRVKFVDLDEAKDSDKEVLFRARVHNTRQQGATLAFLTLRQQASLIQGLVKANKEGTISKNMVKWAGSLNLESIVLVRGIVKKVDEPIKSATVQNLEIHITKIYTISETPEALPILLEDASRSEAEAEAAGLPVVNLDTRLDYRVIDLRTVTNQAIFRIQAGVCELFREYLATKKFTEVHTPKLLGAPSEGGSSVFEVTYFKGKAYLAQSPQFNKQQLIVADFERVYEIGPVFRAENSNTHRHMTEFTGLDMEMAFEEHYHEVLDTLSELFVFIFSELPKRFAHEIELVRKQYPVEEFKLPKDGKMVRLTYKEGIEMLRAAGKEIGDFEDLSTENEKFLGKLVRDKYDTDFYILDKFPLEIRPFYTMPDPANPKYSNSYDFFMRGEEILSGAQRIHDHALLQERMKAHGLSPEDPGLKDYCDGFSYGCPPHAGGGIGLERVVMFYLDLKNIRRASLFPRDPKRLRP	soluble
NVLLLDVTPLTLGIETFGGAFSPLIPRNTTVPVKKTEIFSTGVDGQAGVDIKVFQGERGLVRNNKLIGDLKLTGITPLPKGIPQIYVTFDIDADGIINVSAAEKSSGKQQSITVIPNSGLSEEEIAKLIEEANANRAQDNLIRQRLELISKADIMISDTENLFKRYEKLISSEKEYSNIVEDIKALRQAIKNFKANENDMSIDVNGIKKATDALQGRALKLFQSATKNQQNQGK	soluble
MLRRQMSFNGKSDMGILYLVPTPIGNLEDMTFRAIDTLKSVDAIAAEDTRQTKKLCHVYEIETPLVSYHEHNKESSGHKIIEWLKSGKNIALVSDAGLPTISDPGAEIVKDFTDIGGYVVPLPGANAALTALIASGIVPQPFFFYGFLNRQKKEKKKELEALKKRQETIIFYEAPHRLKETLSAMAEILGDREIAVTRELTKKYEEFIRGTISEVIGWANEDQIRGEFCLVVEGSNNEEVDEEEQWWETLTAKEHVEHYISKGATSKEAIKKAAVDRNVPKREVYDAYHIKQ	soluble
MSLTESARATVSLGFTAELFPPGTHMCYIYNDERERLEIMSEFVRSGIESGEKIAYFVEEMSPQALRDYLAGLGIVPTEEAQLEIAPSVDVYCPEGRFSPDRMLGRLRSAYEDGIREGFNGVRLTGEMHWALRGLPGSERLAEYESRINLLVVDCPLTVICQYDANHFDGATLFKILNAHPMMIVRGQVVHNPYYLSPEEYFARYPVPNVEGHHHHHH	soluble
MAGKQITLASLPIGKKARVKSLTLDGTIRRRIMDLGLVSDTIVEALQKSPSGDPTAYHIRGAVIALRSEEASKIMVEVN	not soluble
MLKNTYIHIPGVGKALEQKIWASGIHTWDEFLEMEDRVLIPSVKKARICEGIKVSSSHLAAKDCFFFSQRLPSAEHWRAYSLFSDSVAFFDIETTGLSPCRDKITVVGIYNGNEVKTYVRGTNLEDLVEEFSRYRLLVSFNGARFDIPFIKSEFPEIEFKQLHIDLMYPLRRIGYGGGLKKIEKLLGICRSEDTDGMDGFDAVRLWKKYEKGDLEALNLLVKYNREDIVNLKTIIELTYPKMVENALKILEHHHHHH	not soluble
MTVNVVVTDMDGTFLDDAKQYDRVRFMAQYQELKKRNIEFVVASGNQYYQLISFFPELKDEISFVAENGALVYEHGKQLFHGELTRHESRIVIGELLKDKQLNFVACGLKSAYVSKNAPETFVALMAKHYHRLQPVNDYHDIDDILFKFSLNLPDEQIPLVIDKLHVSLDGIMKPVTSGFGFIDLIIPGLHKANGISRLLKRWNRSPQNVVAIGDSGNDAEMLKMAHYSFAMGNAADNIKALSRYHTDDNNHQGALNVIQAVLDGTDPF	not soluble
MGSDKIHHHHHHMQFGAKPLFENISVKFGGGNRYGLIGANGCGKSTFMKILCGDLDPSGGNVSLDVNERLGKLSQNQFGYEEFNLIDTVIMGHRELWKVKQERDRIYSLPEMSEEDGITVANLEMDFAEMDGYTAESRAGELLLGVGIGIDSHFGLMSEIAPGLKLRVLLAQALFSDPDVLLLDEPTNNLDIDTIRWLQDMLNQRSSTMVIISHDRYFLNSVCTHMADLDYGELRVYPGNYDEYMQAATQARERLLSDNAKKKAQISELQTFVARFSANASKAKQATSRARQIDKIKLDEVKASSRVNPFIRFEQEKKLFRNALVIENLTKGYDTPLFKDLNLIVEVGERIAVLGENGVGKTTLLRTLIHDIPQDAGTIQWSENANIGYYAQDHESDFANEMTLFEWMSQWRKPEDDDQSVRGILGRMLFGSDDIKKSVKVLSGGEKGRMLFGKLIMQKANILVLDEPTNHMDMESIESLNNALEMYEGTLIFVSHDRAFVSSLANRILEVTHTGVNDFRGTYDEFLASKGIEV	not soluble
MAEIIFNLSADDEGIGKHNYLCSLISQQSARCISGYVFSSSGFGESTTDVVFAGNGLIYENGYLLARSERFCMEEQLIINEIDVECIRAERRVNTTFAANKANCPGKEAVRISTEFVNSKDLNLTRTFNPHPFVPQGNELNSRLEHHHHHH	not soluble
MGSDKIHHHHHHGLDRWMSWKTAPYIYDELQDLPYRQVGVVLGTAKYYRTGVINQYYRYRIQGALNAYNSGKVNYLLLSGDNALQSYNEPMTMRRDLIKGGVDPADIVLDYAGFRTLDSIVRTRKVFDTNDFIIITQRFHCERALFIALHMGIQAQCYAVPSPKDMWSVRLREFGARFGALADLYIFKREPRFLGPLIPIPAQQHDVPDDAQSYPAVTPEQLLELQKEK	not soluble
MFGNSYGGYLANLCAKIAPWSIDFILDNSSFVNLFGNIFRLIGFGKEIDFTRYHGTYDDTLFKNIFLYLSDKTYWNNNKFSKNYFSNARKIIREPLNKEHLIIQSLYPNPKYILYHSIFDERSPFKNKENFVHILKELNFKVEFFAISQVDNKFIKNLNHGMGLSTKLFFKKHLLQILKEPLQDKICKKEVSYKCDELVYTFKEENHQIILNITN	not soluble
MKLNSPSRIHMGLIDLNGELGRVDGGVGVALDYPNFQIEGKESSEIELDSKIEIDEKDRENLESRIKNAARNVLDIIGEDGISLKINEAILSHSGLGSGTQVSLSTGKITSLVYGQDLNAETLAKITGRGGTSGIGVAAFETGGFIVDGGHTFGEGKDKIDFRPSSASKDVKPSPVLFRHDFDWDIVLTIPKGEQVCGDREVDIFRKFCPVPSEDVQKICRLVLMKMMPAVIEKDFNSFGMAVNELQNLGFKRAEVGLQKESLKQLLSKLQDVSYSGISSFGPTIYSLGDKDTITEISNEIFDKFGIDGEIISTKANNSGYEIIK	not soluble
